From publication doi:10.1101/490516, “Molecular mechanism of the Orai channel activation” (bioRxiv, 2018)

Molecular target: the molecule itself
Test: crystal structure; 4.5 Å, molecular replacement with the closed Orai structure 4HKR; protein in NG/NM with POPC:POPE:POPG; sitting drop, 0.05 M NaCl, 0.02 M MgCl2, 0.1 M sodium citrate pH 6.5, 16%-20% PEG400, 17 °C

B1: dOrai-P288L channel (Drosophila melanogaster Orai, amino acids 132-341, C224S, C283T, P288L) (domain or fragment, UniProt Q9U6B8 132-341, looked up)
chain: SMSQSGEDLHSPTYLSWRKLQLSRAKLKASSKTSALLSGFAMVAMVEVQLDHDTNVPPGMLIAFAICTTLLVAVHMLALMISTCILPNIETVSNLHSISLVHESPHERLHWYIETAWAFSTLLGLILFLLEIAILCWVKFYDLSPPAAWSATVVLILVMIIFMAFAIHFYRSLVSHKYEVTVSGIRELEMLKEQMEQDHLEHHNNIRNNG
notes: Orai, Drosophila melanogaster, Uniprot Q9U6B8, amino acid residues 132-341 with C224S, C283T and P288L; codons optimized for Homo sapiens; pEG-BacMam vector; PreScission site and eGFP at the C-terminus, eGFP cleaved by 3C protease on the Ni-NTA beads; No His tag is described, though Ni-NTA beads were used; it probably left with the eGFP; also called dOrai1-P288L; open Orai channel; source: …
- stoichiometry N: 6
